Data reported in publication PMC12205998.

Tests used:
[1] = biological target: E. fergusonii BrxB WT (Escherichia fergusonii); assay: SEC; analytical SEC of E. fergusonii BrxB alone, 10 μM in 100 μl, Superdex 75 increase 10/300 GL, 20 mM Tris HCl pH 7.9, 150 mM NaCl; monomer and dimer
[2] = biological target: E. fergusonii BrxB WT (Escherichia fergusonii); assay: native MS; collected BrxB SEC peaks exchanged into 10 mM ammonium bicarbonate, 0.5 mg/ml, positive ion electrospray time-of-flight MS; monomer and dimer

stoichiometry N [1]: 2
stoichiometry N [2]: 2
Substance: E. fergusonii BrxB WT (natural protein)
